B1: HDV Ribozyme (parent)
chain: GGCCGGCAUGGUCCCAGCCUCCUCGCUGGCGCCGGCUGGGCAACAUUCCGAGGGGACCGUCCCCUCGGUAAUGGCGAAUGGGACCCA

In this data set the parent is B1. Nature of the data set: self-cleavage, relative activity (ratio to wild type); higher = more cleavage; co-transcriptional.
As to U47A A71G, the self-cleavage was found to be 1.03.
For U46A U79C the value was 0.215; for U46C G74C, 0.277; for U47C U79A, 0.65.
With U47C U79G the figure was 0.415.
For U47C U79C the value was 0.297.
With U46A U47C, the self-cleavage amounted to 0.532.
For U46A U47A the value was 0.867; for U46G U72G, 0.623.
For U46G C57G the value was 0.804.
With A45U G54A the figure was 0.939.
Consider U46C U60C, for which the self-cleavage worked out at 0.772.
For C48U C57A, the self-cleavage amounted to 0.972.
With C48U A87U the figure was 0.942; with U46C C57A, 1.22; with C48U A56C, 0.657.
With C48G C58U the figure was 0.617.
For C48G C58G the value was 1.11; for U46A C66U, 0.743.
As for U47A U65C, the self-cleavage worked out at 0.8.
Take U46C U65A: the self-cleavage amounted to 0.853.
Turning to C48U C75A, the self-cleavage was found to be 0.199.
Turning to C48A A51G, the self-cleavage is 0.903.
On to C48A A51C, for which the self-cleavage stood at 1.03.
For U46C C48U the value was 0.655; for C48U G67A, 0.818.
For C48A U79G the value was 0.982.
With C48A U79C the figure was 0.514; with C48A G74C, 0.208; with A45U U79G, 0.506.
Take C49A G74U: the self-cleavage worked out at 0.415.
For U46G U69C the value was 0.582; for C49A C63U, 0.817.
Consider C49A C63G, for which the self-cleavage came to 0.256.
As for U47G A78G, the self-cleavage stood at 1.19.
For C48U G59A the value was 1.06; for U47G G52U, 0.877; for U46C C86U, 0.697.
Consider U46C G54A, for which the self-cleavage is 0.519.
On to C48U G52U, for which the self-cleavage was found to be 0.577.
For U46G G82A the value was 0.161; for U47A A56G, 0.965.
For C48U U79A, the self-cleavage stood at 0.706.
For C48U U79G the value was 0.665.
For U46G G59C the value was 0.831; for U46G A56U, 0.917; for U46G A56G, 0.499.
With C48A U65A the figure was 0.845; with U47C C48A, 0.875.
Turning to U47C C48U, the self-cleavage is 0.597.
On to C48G U60A, for which the self-cleavage stood at 0.864.
For U46A U60C the value was 0.752.
On to U46A U60G, for which the self-cleavage is 0.939.
U47A U60C: the self-cleavage was found to be 0.88.
With C49A G53U the figure was 0.608.
With U47G C62G the figure was 0.534; with U47G C62A, 1.02; with U47A G80A, 0.277.
With C48U U69C the figure was 1.07; with C48U U69A, 1.04; with C48A G68U, 1.1.
Consider C48A G80U, for which the self-cleavage was 0.242.
For U46C U69G the value was 1.08; for U46C U69A, 0.918.
For C48G C84A the value was 0.932; for C48G A78G, 0.86; for C48G A78C, 0.199.
As for U46A G76U, the self-cleavage is 0.954.
Regarding U46A C63U, the self-cleavage is 0.763.
U46A C63A: the self-cleavage amounted to 0.499.
For U47C G80U the value was 0.29.
Regarding C49A G54A, the self-cleavage is 0.589.
With C49A G54U the figure was 0.734; with U47G C57U, 0.985; with U47C C84U, 0.475.
For U47C C84G the value was 0.604; for C49A G55C, 0.927; for U46G C62G, 0.0755.
For C48U C63U the value was 0.969; for C48U C63G, 0.542; for U46C G55U, 0.831.
As to U47C G68U, the self-cleavage was determined as 0.462.
With U47C G68A the figure was 0.867; with U47C C75A, 0.214.
With C48A A87C the figure was 1.16.
As to C48A A87U, the self-cleavage amounted to 1.03.
For U47C A78U the value was 0.277; for U46A C75A, 0.151; for U46A C75U, 0.0665.
For the variant C48A C61A, the self-cleavage turned out to be 1.02.
For C49A A78U the value was 0.248.
For U46A G82U the value was 0.119; for A45U U72A, 0.831.
With C48U A78C the figure was 0.115; with U46A C86A, 0.958; with C48G U79A, 0.911.
As to U47G C61U, the self-cleavage was found to be 0.943.
With U47G C61G the figure was 0.554.
Consider U46G C58U, for which the self-cleavage turned out to be 0.532.
With U46G C58A the figure was 0.639; with U47C U60C, 1.05.
For U46A C85U the value was 0.675; for U46A C58A, 0.57; for U46A C58U, 0.482.
With U47A G59C, the self-cleavage stood at 1.11.
With C49A C66A the figure was 0.786.
With C48G G74C the figure was 0.0755; with C48G G74A, 0.305; with C48U A71G, 1.03.
For C48A G52C the value was 1.03.
Turning to U47A C49U, the self-cleavage was 0.972.
On to U47G U79C, for which the self-cleavage is 0.322.
For U47A G82U the value was 0.142.
For U47A G82A the value was 0.298; for C48G C85U, 0.831.
For U47A A77G the value was 0.831; for C48A C58U, 1.11; for C48U U60C, 1.27.
As to C48G G55C, the self-cleavage is 0.851.
Turning to C48G G55U, the self-cleavage is 0.972.
With U47C C86G the figure was 0.675; with U46C G68C, 0.739; with C48U U72C, 0.554.
With C48U U72A the figure was 0.855.
With U47C U72G the figure was 0.791; with U46G G52A, 0.297.
As for U47G C63U, the self-cleavage came to 1.27.
For U46C G50U the value was 0.779; for U47G G59A, 1.14; for U47G G59U, 1.12.
With C48G G67A the figure was 0.91.
For C49A G50C, the self-cleavage worked out at 1.15.
With C48G C62U the figure was 0.746; with C48G C62A, 0.35; with C48G C62G, 0.269.
With C49A G59A the figure was 0.938; with C48A C64U, 0.923.
For U47C A51G the value was 0.969; for U47C A71U, 1.11.
For U47C A71G, the self-cleavage was found to be 1.13.
Take U46A G54U: the self-cleavage is 0.684.
In the case of U47G A83C, the self-cleavage came out at 0.434.
For U47G U69A the value was 1.27; for U47C C85U, 0.831.
For U47C C85G the value was 0.831; for A45U G68A, 0.712.
For U47A C86A the value was 1.04.
Regarding U47A C86U, the self-cleavage worked out at 0.88.
With U47A C86G the figure was 0.733; with U47G G50U, 0.831; with C48U G80C, 0.243.
As to C48U G80A, the self-cleavage is 0.297.
Regarding U47C U65A, the self-cleavage was found to be 0.923.
For C48G G53A the value was 1.06; for U47C G50A, 0.749; for U46C C85A, 0.617.
For U46C C85G the value was 0.675.
For U46C C85U the value was 0.615.
For the variant C48A G59A, the self-cleavage is 1.22.
With U46G A83G the figure was 0.746; with C48U A70C, 0.649.
With U46C U79A the figure was 0.798.
For U46C G53U the value was 0.831; for U47A C63G, 0.653.
As for U47A C63A, the self-cleavage stood at 0.96.
Consider A45U G76U, for which the self-cleavage worked out at 0.652.
For U47A U79C the value was 0.312.
